The values below come from US20220403022A1.

The assay has as its target human TIGIT on cells (primary T cells, transfected HEK293 cells, Jurkat reporter cells, NK cells) (human) (UniProt Q495A1). Briefly: cell-based or functional assay.

human TIGIT on cells (primary T cells, transfected HEK293 cells, Jurkat reporter cells, NK cells) (human), sequence (Q495A1 22-244 limits assumed): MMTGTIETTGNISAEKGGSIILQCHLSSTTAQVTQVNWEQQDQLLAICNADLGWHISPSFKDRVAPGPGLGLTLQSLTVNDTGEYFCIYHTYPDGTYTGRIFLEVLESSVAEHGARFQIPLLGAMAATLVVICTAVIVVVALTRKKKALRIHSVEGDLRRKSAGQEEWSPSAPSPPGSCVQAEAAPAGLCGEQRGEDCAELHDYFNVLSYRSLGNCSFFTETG

As for Isotype control (antibody), the Max RLU (potency) was found to be 575 RLU.
